Values of other authors as cited in article PMC7214499.

Biological target: IFNAR2 ECD (Homo sapiens) (UniProt P48551)
UniProt P48551, sequence (P48551 27-243): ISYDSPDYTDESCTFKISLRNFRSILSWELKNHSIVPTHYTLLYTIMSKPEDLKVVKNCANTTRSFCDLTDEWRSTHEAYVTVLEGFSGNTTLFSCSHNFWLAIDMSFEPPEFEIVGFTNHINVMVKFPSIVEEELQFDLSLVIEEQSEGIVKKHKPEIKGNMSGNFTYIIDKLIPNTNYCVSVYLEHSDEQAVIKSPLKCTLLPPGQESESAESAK

Kd: 10 nM
Substance: IFNα2 (from UniProt P01563)
